According to US20020004209A1, “Use of SLIM3 for binding to molecules” (Schering Aktiengesellschaft Patents, priority 1999, published 2002):

What was measured:
Experiment in all cases: GST-protein-interaction test
Format in all cases: binding
Conditions in all cases: in vitro
co-activator SRC1 = co-activator SRC1 (Homo sapiens, UniProt Q15788)
[1] = biological target: T1, progesterone receptor alpha (Homo sapiens, UniProt P06401)
T1 construct: made in house; host or cells: in vitro translation, 35S-methionine labelled
T1 sequence (P06401 1-769 isoform P06401-2): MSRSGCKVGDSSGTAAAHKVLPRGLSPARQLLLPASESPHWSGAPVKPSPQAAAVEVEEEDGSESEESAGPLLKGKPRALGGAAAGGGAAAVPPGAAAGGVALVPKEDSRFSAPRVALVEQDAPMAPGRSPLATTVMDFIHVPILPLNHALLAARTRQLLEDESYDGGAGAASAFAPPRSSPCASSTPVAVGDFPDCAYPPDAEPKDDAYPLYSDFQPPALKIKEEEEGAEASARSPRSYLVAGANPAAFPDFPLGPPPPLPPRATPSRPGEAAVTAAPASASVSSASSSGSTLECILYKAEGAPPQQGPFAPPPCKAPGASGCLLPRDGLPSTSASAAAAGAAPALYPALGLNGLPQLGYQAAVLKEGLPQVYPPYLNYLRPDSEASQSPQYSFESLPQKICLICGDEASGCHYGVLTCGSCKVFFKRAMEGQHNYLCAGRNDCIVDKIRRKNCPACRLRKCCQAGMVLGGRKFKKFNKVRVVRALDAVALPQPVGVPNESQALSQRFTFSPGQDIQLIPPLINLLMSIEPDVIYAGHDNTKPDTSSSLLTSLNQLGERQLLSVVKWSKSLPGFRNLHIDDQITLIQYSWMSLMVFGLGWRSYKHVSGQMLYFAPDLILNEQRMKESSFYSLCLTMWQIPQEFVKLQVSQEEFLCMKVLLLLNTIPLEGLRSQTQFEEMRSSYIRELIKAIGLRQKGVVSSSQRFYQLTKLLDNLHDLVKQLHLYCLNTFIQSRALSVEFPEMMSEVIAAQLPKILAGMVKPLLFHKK
Method: (§1) To measure the interaction between SLIM3 and the nuclear receptors in vitro, the GST-Slim3 fusion protein was immobilized by means of glutathione-sepharose and incubated with several in vitro-translated ^35S-methionine-labeled nuclear receptors. The complete human androgen receptor binds to GST-Slim3. This in vitro interaction is not ligand-dependent under standard conditions. The complete human androgen receptor binds specifically to GST-Slim3, but not to the GST protein alone. To safeguard the specificity between the human androgen receptor and SLIM3, another GST-protein-interaction test was carried out (GST-protein-interaction assay). This test is described in E. PFITZNER et al. (1995) Functional Antagonism Between the Retinoid Acid Receptor and the Viral Transactivator BZLF1 is Mediated by Protein-Protein Interactions. Proc Natl Acad Sci USA Vol. 92, pp. 12265-12269.

glucocorticoid receptors = biological target: T2, glucocorticoid receptors (Homo sapiens, UniProt P04150)
T2 construct: made in house; host or cells: in vitro translation, 35S-methionine labelled
T2 sequence (P04150 1-777): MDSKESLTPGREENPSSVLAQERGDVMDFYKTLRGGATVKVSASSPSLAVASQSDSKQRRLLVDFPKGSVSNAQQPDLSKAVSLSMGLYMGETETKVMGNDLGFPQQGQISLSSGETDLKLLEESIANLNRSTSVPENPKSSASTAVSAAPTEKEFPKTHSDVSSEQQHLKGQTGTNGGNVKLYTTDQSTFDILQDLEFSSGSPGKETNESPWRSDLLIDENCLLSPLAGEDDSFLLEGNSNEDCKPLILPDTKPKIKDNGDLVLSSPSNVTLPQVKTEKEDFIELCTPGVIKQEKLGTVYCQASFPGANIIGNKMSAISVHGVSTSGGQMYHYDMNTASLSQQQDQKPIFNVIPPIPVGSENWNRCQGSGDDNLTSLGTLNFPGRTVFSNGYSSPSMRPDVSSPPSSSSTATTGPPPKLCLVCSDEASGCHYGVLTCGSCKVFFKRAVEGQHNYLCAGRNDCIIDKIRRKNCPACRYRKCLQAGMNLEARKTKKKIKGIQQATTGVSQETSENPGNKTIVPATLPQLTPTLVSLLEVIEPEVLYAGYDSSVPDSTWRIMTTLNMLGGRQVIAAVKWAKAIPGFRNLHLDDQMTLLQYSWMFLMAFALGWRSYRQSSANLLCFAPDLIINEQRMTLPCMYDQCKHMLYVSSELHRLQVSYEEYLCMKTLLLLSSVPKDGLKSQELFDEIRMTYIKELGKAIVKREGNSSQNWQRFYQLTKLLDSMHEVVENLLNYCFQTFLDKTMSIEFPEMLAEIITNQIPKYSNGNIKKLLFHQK
Method: as §1

[2] = biological target: T3, progesterone receptor beta (Homo sapiens, UniProt P06401)
T3 construct: made in house; host or cells: in vitro translation, 35S-methionine labelled
T3 sequence (P06401 1-933): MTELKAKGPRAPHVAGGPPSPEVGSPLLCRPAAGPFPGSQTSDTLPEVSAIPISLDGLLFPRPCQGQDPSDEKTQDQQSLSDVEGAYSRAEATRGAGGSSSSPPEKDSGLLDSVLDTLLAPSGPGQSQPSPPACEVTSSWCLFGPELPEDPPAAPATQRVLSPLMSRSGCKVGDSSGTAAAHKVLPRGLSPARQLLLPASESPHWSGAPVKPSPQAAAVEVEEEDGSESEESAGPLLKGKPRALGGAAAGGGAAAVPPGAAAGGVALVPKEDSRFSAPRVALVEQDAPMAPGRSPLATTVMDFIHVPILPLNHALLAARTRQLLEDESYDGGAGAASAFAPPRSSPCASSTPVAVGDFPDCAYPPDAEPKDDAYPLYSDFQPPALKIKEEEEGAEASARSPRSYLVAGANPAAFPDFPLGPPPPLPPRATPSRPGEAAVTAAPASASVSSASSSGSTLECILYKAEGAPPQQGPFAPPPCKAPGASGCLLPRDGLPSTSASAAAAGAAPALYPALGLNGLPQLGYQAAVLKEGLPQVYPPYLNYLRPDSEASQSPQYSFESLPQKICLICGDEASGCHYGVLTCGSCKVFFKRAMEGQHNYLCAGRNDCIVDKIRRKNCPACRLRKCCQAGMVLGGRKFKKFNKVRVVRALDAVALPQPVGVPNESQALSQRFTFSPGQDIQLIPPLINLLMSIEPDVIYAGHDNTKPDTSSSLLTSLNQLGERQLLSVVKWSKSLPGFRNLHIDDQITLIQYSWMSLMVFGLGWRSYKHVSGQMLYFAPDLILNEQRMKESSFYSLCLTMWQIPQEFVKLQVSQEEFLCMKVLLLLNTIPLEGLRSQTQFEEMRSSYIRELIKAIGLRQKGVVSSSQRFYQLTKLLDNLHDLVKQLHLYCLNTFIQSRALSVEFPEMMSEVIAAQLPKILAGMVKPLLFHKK
Method: as §1

Sequence of co-activator SRC1 (Q15788 whole entry): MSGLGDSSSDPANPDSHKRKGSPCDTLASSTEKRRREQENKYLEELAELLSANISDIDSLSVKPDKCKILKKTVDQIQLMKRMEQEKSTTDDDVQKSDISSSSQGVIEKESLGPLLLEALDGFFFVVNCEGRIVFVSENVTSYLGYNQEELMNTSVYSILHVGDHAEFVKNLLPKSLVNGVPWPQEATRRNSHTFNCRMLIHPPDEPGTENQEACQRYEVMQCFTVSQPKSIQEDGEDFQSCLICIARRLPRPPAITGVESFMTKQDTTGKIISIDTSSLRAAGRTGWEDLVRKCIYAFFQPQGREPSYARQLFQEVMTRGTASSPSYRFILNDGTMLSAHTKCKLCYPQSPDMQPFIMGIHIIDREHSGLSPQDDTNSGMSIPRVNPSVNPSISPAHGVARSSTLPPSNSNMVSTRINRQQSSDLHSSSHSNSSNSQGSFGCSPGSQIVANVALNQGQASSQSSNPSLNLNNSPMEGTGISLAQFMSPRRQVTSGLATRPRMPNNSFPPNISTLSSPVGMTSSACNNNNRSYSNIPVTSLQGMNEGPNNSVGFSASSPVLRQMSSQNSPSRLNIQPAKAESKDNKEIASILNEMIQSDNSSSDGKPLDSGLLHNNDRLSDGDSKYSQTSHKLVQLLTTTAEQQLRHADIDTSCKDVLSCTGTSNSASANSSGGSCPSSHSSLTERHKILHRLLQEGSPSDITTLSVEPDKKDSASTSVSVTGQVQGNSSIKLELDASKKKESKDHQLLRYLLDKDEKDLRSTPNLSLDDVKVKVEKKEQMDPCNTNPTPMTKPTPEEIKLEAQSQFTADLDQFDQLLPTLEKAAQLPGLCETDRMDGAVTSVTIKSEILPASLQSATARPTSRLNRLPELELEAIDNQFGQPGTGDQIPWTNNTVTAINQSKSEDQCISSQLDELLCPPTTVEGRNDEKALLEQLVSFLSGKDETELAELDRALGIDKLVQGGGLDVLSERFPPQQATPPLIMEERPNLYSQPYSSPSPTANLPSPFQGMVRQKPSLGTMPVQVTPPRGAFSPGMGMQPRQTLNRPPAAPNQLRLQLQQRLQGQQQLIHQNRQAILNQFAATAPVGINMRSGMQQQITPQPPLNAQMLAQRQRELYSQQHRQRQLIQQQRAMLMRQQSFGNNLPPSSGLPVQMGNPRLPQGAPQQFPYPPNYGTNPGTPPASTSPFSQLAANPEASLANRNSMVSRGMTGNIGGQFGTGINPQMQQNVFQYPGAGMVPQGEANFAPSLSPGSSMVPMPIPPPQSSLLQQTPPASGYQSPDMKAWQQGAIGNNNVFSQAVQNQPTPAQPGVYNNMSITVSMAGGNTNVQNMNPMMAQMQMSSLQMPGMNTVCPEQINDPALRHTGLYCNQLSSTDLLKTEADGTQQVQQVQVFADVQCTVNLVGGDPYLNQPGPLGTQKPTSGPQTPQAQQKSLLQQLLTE

interaction with co-activator (co-activator SRC1): no interaction
bond to SLIM3 [1]: no bond
bond to SLIM3 (glucocorticoid receptors): no bond
bond to SLIM3 [2]: no bond
Substance: SLIM3: LIM-domain protein of 279 amino acids, co-activator for nuclear receptors AR and ERβ
